Results taken from US20110236325A1, “METHODS TO TREAT OR PREVENT A SKIN CONDITION USING A NELL1 PEPTIDE” (NellOne Therapeutics, Inc., priority 2010, published 2011).

Legend:
EFT-400 tissues [1] = experiment: Gene expression by quantitative PCR custom array in EFT-400 tissues with or without UV irradiation
Protocol: EpiDerm-FT™ (EFT-400) tissues were produced and packaged in the MatTek Corporation GMP tissue culture production laboratories following standard procedures. Packaged tissues were stored at 4° C. overnight and then re-equilibrated in EFT-400-ASY medium overnight prior to the start of experiments. The sample size was n=3 for each treatment group in the gene expression experiments; and n=6 (two independent experiments of n=3) for the sunburned cell counts.
Total RNA was isolated from the EFT-400 tissues (RNAqueous kit, Ambion) (n=3) and utilized for gene expression analysis by quantitative PCR on an SABioscience custom array containing 42 Human Extracellular Matrix (ECM) and Adhesion Molecules RT^2 Profiler™ PCR Array, stress and toxicity genes whose expression, based on MatTek data, are known to be dramatically altered by UV-protective compounds on UV damaged skin. […] Further, there were three internal control spots on the array that corresponded to human genomic DNA contamination (HGDC), positive PCR control (PPC), and reverse transcription control (RTC).

EFT-400 tissues [2] = experiment: Sunburned cell counts in UV-irradiated EpiDerm-FT (EFT-400) skin model tissues, H&E histology; type: cell-based, human; conditions: for sunburned cell formation: 200 mJ/cm2 UVB/29.94 mW/cm2 UVA, 24 hour post irradiation
Protocol: Packaged tissues were stored at 4° C. overnight and then re-equilibrated in EFT-400-ASY medium overnight prior to the start of experiments. The sample size was n=3 for each treatment group in the gene expression experiments; and n=6 (two independent experiments of n=3) for the sunburned cell counts.
Treated and untreated tissues were exposed to UV irradiation with 200 mJ/cm^2UVB/29.94 mW/cm^2UVA simulated solar UV light (Honle-500 solar lamp).
At the conclusion of the 24 hour post-irradiation period, EFT-400 tissues were fixed in 10% formalin for 2 hours at room temperature (two independent experiments with n=3). Formalin fixed tissues were embedded in paraffin and 6 micron slices were stained with haematoxylin and eosin (H&E).

B1: Nell 1: Full-length human recombinant NELL1 protein (isoform 1, SEQ ID NO: 2), expressed in a wheat germ cell-free translation system, obtained from Abnova (protein, listed as Homo sapiens)
chain: MPMDLILVVWFCVCTARTVVGFGMDPDLQMDIVTELDLVNTTLGVAQVSGMHNASKAFLFQDIEREIHAAPHVSEKLIQLFRNKSEFTILATVQQKPSTSGVILSIRELEHSYFELESSGLRDEIRYHYIHNGKPRTEALPYRMADGQWHKVALSVSASHLLLHVDCNRIYERVIDPPDTNLPPGINLWLGQRNQKHGLFKGIIQDGKIIFMPNGYITQCPNLNHTCPTCSDFLSLVQGIMDLQELLAKMTAKLNYAETRLSQLENCHCEKTCQVSGLLYRDQDSWVDGDHCRNCTCKSGAVECRRMSCPPLNCSPDSLPVHIAGQCCKVCRPKCIYGGKVLAEGQRILTKSCRECRGGVLVKITEMCPPLNCSEKDHILPENQCCRVCRGHNFCAEGPKCGENSECKNWNTKATCECKSGYISVQGDSAYCEDIDECAAKMHYCHANTVCVNLPGLYRCDCVPGYIRVDDFSCTEHDECGSGQHNCDENAICTNTVQGHSCTCKPGYVGNGTICRAFCEEGCRYGGTCVAPNKCVCPSGFTGSHCEKDIDECSEGIIECHNHSRCVNLPGWYHCECRSGFHDDGTYSLSGESCIDIDECALRTHTCWNDSACINLAGGFDCLCPSGPSCSGDCPHEGGLKHNGQVWTLKEDRCSVCSCKDGKIFCRRTACDCQNPSADLFCCPECDTRVTSQCLDQNGHKLYRSGDNWTHSCQQCRCLEGEVDCWPLTCPNLSCEYTAILEGECCPRCVSDPCLADNITYDIRKTCLDSYGVSRLSGSVWTMAGSPCTTCKCKNGRVCCSVDFECLQNN
EFT-400 tissues [1]; NELL1 protein at 100 ng/ml, genistein at 50 μM
  activity in producing the observed effects (sunburned cells, gene expression): most active in producing the observed effects
EFT-400 tissues [1]; No UV, 100 ng/ml Nell 1
  AVG Ct ACTB (housekeeping gene): 18
  AVG Ct AQP3: 23.05
  AVG Ct BCL2L1: 24.03
  AVG Ct COL1A1: 17.82
  AVG Ct COL4A2: 22.01
  AVG Ct COL5A1: 22.36
  AVG Ct COL6A1: 18.82
  AVG Ct COL6A2: 19.33
  AVG Ct COL7A1: 25.75
  AVG Ct COL8A1: 27.28
  AVG Ct COL11A1: 26.77
  AVG Ct COL12A1: 24.14
  AVG Ct COL14A1: 25.88
  AVG Ct COL15A1: 24.72
  AVG Ct COL16A1: 23.78
  AVG Ct DSG1: 20.11
  AVG Ct ERCC1: 23.72
  AVG Ct FN1: 20.04
  AVG Ct GAPDH (housekeeping gene): 17.83
  AVG Ct GDF15: 23.37
  AVG Ct GSTM3: 29.11
  AVG Ct HSPA8: 19.83
  AVG Ct IL1A: 25.17
  AVG Ct IL1B: 28.25
  AVG Ct IL8: 20.41
  AVG Ct KAL1: 31.6
  AVG Ct KRT16: 16.15
  AVG Ct LAMA1: 28.71
  AVG Ct LAMA2: 24.38
  AVG Ct LAMA3: 23.37
  AVG Ct LAMA5: 26.73
  AVG Ct LAMB1: 22.69
  AVG Ct LAMB3: 24.73
  AVG Ct LAMC1: 22.76
  AVG Ct MMP1: 20.04
  AVG Ct MMP2: 18.98
  AVG Ct MT2A: 18.43
  AVG Ct PCNA: 23.56
  AVG Ct RPL13A (housekeeping gene): 20.37
  AVG Ct SIRT1: 25.93
  AVG Ct TGFBI: 21.73
  AVG Ct THBS3: 28.69
  AVG Ct TNC: 21.22
  AVG Ct VTN: 32.48
EFT-400 tissues [1]; No UV, 150 ng/ml Nell 1
  AVG Ct ACTB (housekeeping gene): 18.54
  AVG Ct AQP3: 23.74
  AVG Ct BCL2L1: 24.48
  AVG Ct COL1A1: 18.8
  AVG Ct COL4A2: 22.92
  AVG Ct COL5A1: 23.36
  AVG Ct COL6A1: 19.6
  AVG Ct COL6A2: 20.05
  AVG Ct COL7A1: 26.73
  AVG Ct COL8A1: 28.22
  AVG Ct COL11A1: 27.51
  AVG Ct COL12A1: 25
  AVG Ct COL14A1: 26.52
  AVG Ct COL15A1: 25.35
  AVG Ct COL16A1: 24.55
  AVG Ct DSG1: 20.36
  AVG Ct ERCC1: 24.07
  AVG Ct FN1: 20.71
  AVG Ct GAPDH (housekeeping gene): 18.02
  AVG Ct GDF15: 23.97
  AVG Ct GSTM3: 29.74
  AVG Ct HSPA8: 20.36
  AVG Ct IL1A: 25.55
  AVG Ct IL1B: 29.2
  AVG Ct IL8: 21.04
  AVG Ct KAL1: 33.03
  AVG Ct KRT16: 16.49
  AVG Ct LAMA1: 29.76
  AVG Ct LAMA2: 25.3
  AVG Ct LAMA3: 24.15
  AVG Ct LAMA5: 27.41
  AVG Ct LAMB1: 23.44
  AVG Ct LAMB3: 25.42
  AVG Ct LAMC1: 23.62
  AVG Ct MMP1: 20.75
  AVG Ct MMP2: 19.62
  AVG Ct MT2A: 18.83
  AVG Ct PCNA: 24.11
  AVG Ct RPL13A (housekeeping gene): 20.81
  AVG Ct SIRT1: 26.67
  AVG Ct TGFBI: 22.16
  AVG Ct THBS3: 29.23
  AVG Ct TNC: 22.04
  AVG Ct VTN: 32.57
EFT-400 tissues [1]; UV-irradiated
  expression of IL-1β elevated after UV exposure: decrease in the expression
  expression of IL-8 elevated after UV exposure: decrease in the expression
  expression of MMP-1 elevated after UV exposure: decrease in the expression
  levels of AQP3 RNA after UV exposure: increased these levels further
EFT-400 tissues [1]; UV-irradiated, 100 ng/ml
  UV-elevated levels of AQP3: further increased the UV-elevated levels of AQP3
  UV-induced increase in IL-1β RNA level: slightly modulated the increases
  UV-induced increase in IL-8 RNA level: slightly modulated the increases
  UV-induced increase in MMP-1 RNA level: slightly modulated the increases
  significance of further increase of AQP3 RNA after UV exposure: highly significant
EFT-400 tissues [1]; UV-irradiated, 150 ng/ml
  UV-elevated levels of AQP3: did not have the same effect
  UV-induced increase in IL-1β RNA level: did not
  UV-induced increase in IL-8 RNA level: did not
  UV-induced increase in MMP-1 RNA level: did not
EFT-400 tissues [1]; UVB + UVA, 100 ng/ml Nell 1
  AVG Ct ACTB (housekeeping gene): 17.67
  AVG Ct AQP3: 21.13
  AVG Ct BCL2L1: 23.22
  AVG Ct COL1A1: 18.36
  AVG Ct COL4A2: 21.55
  AVG Ct COL5A1: 22.98
  AVG Ct COL6A1: 19.15
  AVG Ct COL6A2: 19.19
  AVG Ct COL7A1: 24.38
  AVG Ct COL8A1: 26.96
  AVG Ct COL11A1: 26.86
  AVG Ct COL12A1: 23.95
  AVG Ct COL14A1: 25.64
  AVG Ct COL15A1: 25.01
  AVG Ct COL16A1: 23.42
  AVG Ct DSG1: 20.06
  AVG Ct ERCC1: 23.26
  AVG Ct FN1: 19.79
  AVG Ct GAPDH (housekeeping gene): 18.15
  AVG Ct GDF15: 22.21
  AVG Ct GSTM3: 29.13
  AVG Ct HSPA8: 19.74
  AVG Ct IL1A: 24.03
  AVG Ct IL1B: 26.48
  AVG Ct IL8: 17.72
  AVG Ct KAL1: 31.65
  AVG Ct KRT16: 16.35
  AVG Ct LAMA1: 28.16
  AVG Ct LAMA2: 25.03
  AVG Ct LAMA3: 22.41
  AVG Ct LAMA5: 26.3
  AVG Ct LAMB1: 22.34
  AVG Ct LAMB3: 23.78
  AVG Ct LAMC1: 22.72
  AVG Ct MMP1: 17.91
  AVG Ct MMP2: 18.77
  AVG Ct MT2A: 16.81
  AVG Ct PCNA: 23.31
  AVG Ct RPL13A (housekeeping gene): 20.55
  AVG Ct SIRT1: 26
  AVG Ct TGFBI: 21.97
  AVG Ct THBS3: 28.28
  AVG Ct TNC: 20.22
  AVG Ct VTN: 31.83
EFT-400 tissues [1]; UVB + UVA, 150 ng/ml Nell 1
  AVG Ct ACTB (housekeeping gene): 17.99
  AVG Ct AQP3: 21.71
  AVG Ct BCL2L1: 23.45
  AVG Ct COL1A1: 18.78
  AVG Ct COL4A2: 21.59
  AVG Ct COL5A1: 23.33
  AVG Ct COL6A1: 19.34
  AVG Ct COL6A2: 19.56
  AVG Ct COL7A1: 25.28
  AVG Ct COL8A1: 27.46
  AVG Ct COL11A1: 27.23
  AVG Ct COL12A1: 24.22
  AVG Ct COL14A1: 25.86
  AVG Ct COL15A1: 25.2
  AVG Ct COL16A1: 23.71
  AVG Ct DSG1: 20.21
  AVG Ct ERCC1: 23.41
  AVG Ct FN1: 20.13
  AVG Ct GAPDH (housekeeping gene): 18.08
  AVG Ct GDF15: 21.87
  AVG Ct GSTM3: 29.32
  AVG Ct HSPA8: 20.04
  AVG Ct IL1A: 23.99
  AVG Ct IL1B: 25.98
  AVG Ct IL8: 17.08
  AVG Ct KAL1: 32.24
  AVG Ct KRT16: 16.47
  AVG Ct LAMA1: 28.02
  AVG Ct LAMA2: 25.17
  AVG Ct LAMA3: 22.96
  AVG Ct LAMA5: 27.06
  AVG Ct LAMB1: 22.48
  AVG Ct LAMB3: 24.32
  AVG Ct LAMC1: 22.88
  AVG Ct MMP1: 17.75
  AVG Ct MMP2: 18.67
  AVG Ct MT2A: 16.56
  AVG Ct PCNA: 23.58
  AVG Ct RPL13A (housekeeping gene): 20.64
  AVG Ct SIRT1: 26.02
  AVG Ct TGFBI: 21.91
  AVG Ct THBS3: 28.7
  AVG Ct TNC: 20.2
  AVG Ct VTN: 32.41
EFT-400 tissues [1]; no UV
  gene expression in the absence of UV irradiation: some decreases in gene expression
EFT-400 tissues [2]; 100 ng/ml
  sunburned cell formation: decrease in sunburned cell formation
EFT-400 tissues [2]; 150 ng/ml
  sunburned cell formation: did not decrease sunburned cell formation to the same extent as 100 ng/ml NELL1
EFT-400 tissues [2]; pre-treatment 30 minutes prior to UV, continued 24 hours post-irradiation
  number of sunburned cells as compared to UV-only controls: statistically significant reduction in the number of sunburned cells
